According to patent publication US20140287471A1, “VARIANT CBH I POLYPEPTIDES WITH REDUCED PRODUCT INHIBITION” (BP CORPORATION NORTN AMERICA INC., priority 2011, published 2014):
Read-outs that look alike come from different tables or passages of the source.

What was measured:
Type in all cases: biochemical
[1] = 4-MUL cellobiose tolerance/inhibition assay, dose-response IC50 (Example 2)
In short: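 IC50 reflects cellobiose concentration halving activity, fitted by four-parameter dose-response with zero activity fixed at knockout-strain background. Assays used 4-MUL (0.5 mM) with enzyme at 5 μg/mL or less, pH 6 MES, 25 mM gluconolactone blocking BG, cellobiose up to 100 mM; 4-MU fluorescence read.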

[2] = Saccharification assay (bagasse assay) with and without β-glucosidase (Example 1); conditions: T. reesei CBH I variants; activity without β-glucosidase (BG) relative to with BG
Procedure: This assay measures the activity of CBH I on bagasse, a lignocellulosic substrate. Reactions were run in 10 ml vials with 5% dilute acid pretreated bagasse (250 mg solids per 5 ml reaction). Each reaction contained 4 mg CBH I enzyme/g solids, 200 mM MES pH 6, kanamycin, and chloramphenicol. Reactions were incubated at 35° C. in hybridization incubators (Robbins Scientific), rotating at 20 RPM. Time points were taken by transferring a sample of homogenous slurry (150 μl) into a 96-well deep well plate and quenching the reaction with stop buffer (450 μl of 500 mM sodium carbonate, pH 10). Time point measurements were taken every 24 hours for 72 hours.
Tolerance to cellobiose (or inhibition caused by cellobiose) was tested in two ways in the CBH I assays. A direct-dose tolerance method can be applied to all of the CBH I assays (i.e., 4-MUL, PASC, and/or bagasse assays), and entails the exogenous addition of a known amount of cellobiose into assay mixtures. A different indirect method entails the addition of an excess amount of β-glucosidase (BG) to PASC and bagasse assays (typically, 1 mg β-glucosidase/g solids loaded). BG will enzymatically hydrolyze the cellobiose generated during these assays; therefore, CBH I activity in the presence of BG can be taken as a measure of activity in the absence of cellobiose. Furthermore, when activity in the presence and absence of BG are similar, this indicates tolerance to cellobiose.

[3] = 4-MUL assay with and without cellobiose (Example 1); conditions: T. reesei CBH I variants; activity with 250 mg/L cellobiose relative to without cellobiose
[4] = 4-MUL assay, specific activity (Example 2)
In short: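 Specific activity derived from 4-MU standard curves and HPLC-quantified enzyme. Initial rates were taken over the first 15 min, with an endpoint read at 1 h (pH 10 carbonate quench), all at ex 365/em 450 nm. Conditions: 0.5 mM 4-MUL, 5 μg/mL enzyme, MES pH 6, 25 mM gluconolactone, cellobiose optional.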

[5] = Secondary screening, CBH I levels normalized to 5 μg/mL, cellobiose range 0.00085-100 mM, read-out: IC50
[6] = secondary screening, CBH I levels normalized to 5 μg/mL, cellobiose range 0.0001-100 mM, read-out: Average IC50
[7] = 411 single substitution, averaged IC50 from Tables 8-11, read-out: 411— Measured (merged IC50)

Molecule | IC50 [1, 5] [µM] | IC50 [1, 6] [µM] | Tolerance to cellobiose accumulation % Activity in Bagasse Assay (+/−BG) [2] [%] | further results
411A: CBH I variant with site 411 mutated to alanine (protein, listed as Trichoderma reesei) QSACTLQSETHPPLTWQKCSSGGTCTQQTGSVVIDANWRWTHATNSSTNCYDGNTWSSTLCPDNETCAKNCCLDGAAYASTYGVTTSGNSLSIGFVTQSAQKNVGARLYLMASDTTYQEFTLLGNEFSFDVDVSQLPCGLNGALYFVSMDADGGVSKYPTNTAGAKYGTGYCDSQCPRDLKFINGQANVEGWEPSSNNANTGIGGHGSCCSEMDIWEANSISEALTPHPCTTVGQEICEGDGCGGTYSDNRYGGTCDPDGCDWNPYRLGNTSFYGPGSSFTLDTTKKLTVVTQFETSGAINRYYVQNGVTFQQPNAELGSYSGNELNDDYCTAEEAEFGGSSFSDKGGLTQFKKATSGGMVLVMSLWDDYYANMLWLDSTYPTNETSSTPGAVAGSCSTSSGVPAQVESQSPNAKVTFSNIKFGPIGSTGNPSGGNPPGGNPPGTTTTRRPATTTGSSPGPTQSHYGQCGGIGYSGPTVCASGTTCQVLNPYYSQCL | 1060 | 918 | 94 | IC50 ([1]; averaged IC50 values from Tables 8-11, read-out: measured IC50 of cellobiose (merged values)): 1170 µM
R268A/R411K: T. reesei CBH I with R268A and R411K substitutions (protein, UniProt P62694 18-513, looked up, variant R268A R411K) Exoglucanase 1: QSACTLQSETHPPLTWQKCSSGGTCTQQTGSVVIDANWRWTHATNSSTNCYDGNTWSSTLCPDNETCAKNCCLDGAAYASTYGVTTSGNSLSIGFVTQSAQKNVGARLYLMASDTTYQEFTLLGNEFSFDVDVSQLPCGLNGALYFVSMDADGGVSKYPTNTAGAKYGTGYCDSQCPRDLKFINGQANVEGWEPSSNNANTGIGGHGSCCSEMDIWEANSISEALTPHPCTTVGQEICEGDGCGGTYSDNAYGGTCDPDGCDWNPYRLGNTSFYGPGSSFTLDTTKKLTVVTQFETSGAINRYYVQNGVTFQQPNAELGSYSGNELNDDYCTAEEAEFGGSSFSDKGGLTQFKKATSGGMVLVMSLWDDYYANMLWLDSTYPTNETSSTPGAVKGSCSTSSGVPAQVESQSPNAKVTFSNIKFGPIGSTGNPSGGNPPGGNRGTTTTRRPATTTGSSPGPTQSHYGQCGGIGYSGPTVCASGTTCQVLNPYYSQCL |  |  | 94 | Tolerance to 250 mg/L cellobiose % Activity in 4-MUL Assay (+/−Cellobiose) [3]: 97%
R268K: T. reesei CBH I with an R268K substitution (protein, listed as Trichoderma reesei) MYRKLAVISAFLATARAQSACTLQSETHPPLTWQKCSSGGTCTQQTGSVVIDANWRWTHATNSSTNCYDGNTWSSTLCPDNETCAKNCCLDGAAYASTYGVTTSGNSLSIGFVTQSAQKNVGARLYLMASDTTYQEFTLLGNEFSFDVDVSQLPCGLNGALYFVSMDADGGVSKYPTNTAGAKYGTGYCDSQCPRDLKFINGQANVEGWEPSSNNANTGIGGHGSCCSEMDIWEANSISEALTPHPCTTVGQEICEGDGCGGTYSDNKYGGTCDPDGCDWNPYRLGNTSFYGPGSSFTLDTTKKLTVVTQFETSGAINRYYVQNGVTFQQPNAELGSYSGNELNDDYCTAEEAEFGGSSFSDKGGLTQFKKATSGGMVLVMSLWDDYYANMLWLDSTYPTNETSSTPGAVRGSCSTSSGVPAQVESQSPNAKVTFSNIKFGPIGSTGNPSGGNPPGGNPPGTTTTRRPATTTGSSPGPTQSHYGQCGGIGYSGPTVCASGTTCQVLNPYYSQCL | 134 | 93 | 92 | 
R268A: T. reesei CBH I with an R268A substitution (protein, listed as Trichoderma reesei) QSACTLQSETHPPLTWQKCSSGGTCTQQTGSVVIDANWRWTHATNSSTNCYDGNTWSSTLCPDNETCAKNCCLDGAAYASTYGVTTSGNSLSIGFVTQSAQKNVGARLYLMASDTTYQEFTLLGNEFSFDVDVSQLPCGLNGALYFVSMDADGGVSKYPTNTAGAKYGTGYCDSQCPRDLKFINGQANVEGWEPSSNNANTGIGGHGSCCSEMDIWEANSISEALTPHPCTTVGQEICEGDGCGGTYSDNAYGGTCDPDGCDWNPYRLGNTSFYGPGSSFTLDTTKKLTVVTQFETSGAINRYYVQNGVTFQQPNAELGSYSGNELNDDYCTAEEAEFGGSSFSDKGGLTQFKKATSGGMVLVMSLWDDYYANMLWLDSTYPTNETSSTPGAVRGSCSTSSGVPAQVESQSPNAKVTFSNIKFGPIGSTGNPSGGNPPGGNPPGTTTTRRPATTTGSSPGPTQSHYGQCGGIGYSGPTVCASGTTCQVLNPYYSQCL | 574 | 423 | 86 | 
R411K: T. reesei CBH I with an R411K substitution (protein, UniProt P62694 18-513, looked up, variant R411K) Exoglucanase 1: QSACTLQSETHPPLTWQKCSSGGTCTQQTGSVVIDANWRWTHATNSSTNCYDGNTWSSTLCPDNETCAKNCCLDGAAYASTYGVTTSGNSLSIGFVTQSAQKNVGARLYLMASDTTYQEFTLLGNEFSFDVDVSQLPCGLNGALYFVSMDADGGVSKYPTNTAGAKYGTGYCDSQCPRDLKFINGQANVEGWEPSSNNANTGIGGHGSCCSEMDIWEANSISEALTPHPCTTVGQEICEGDGCGGTYSDNRYGGTCDPDGCDWNPYRLGNTSFYGPGSSFTLDTTKKLTVVTQFETSGAINRYYVQNGVTFQQPNAELGSYSGNELNDDYCTAEEAEFGGSSFSDKGGLTQFKKATSGGMVLVMSLWDDYYANMLWLDSTYPTNETSSTPGAVKGSCSTSSGVPAQVESQSPNAKVTFSNIKFGPIGSTGNPSGGNPPGGNRGTTTTRRPATTTGSSPGPTQSHYGQCGGIGYSGPTVCASGTTCQVLNPYYSQCL | 3060 | 2080 | 89 | 
411Leu (protein, UniProt P62694 18-513, looked up, variant R411L) Exoglucanase 1: QSACTLQSETHPPLTWQKCSSGGTCTQQTGSVVIDANWRWTHATNSSTNCYDGNTWSSTLCPDNETCAKNCCLDGAAYASTYGVTTSGNSLSIGFVTQSAQKNVGARLYLMASDTTYQEFTLLGNEFSFDVDVSQLPCGLNGALYFVSMDADGGVSKYPTNTAGAKYGTGYCDSQCPRDLKFINGQANVEGWEPSSNNANTGIGGHGSCCSEMDIWEANSISEALTPHPCTTVGQEICEGDGCGGTYSDNRYGGTCDPDGCDWNPYRLGNTSFYGPGSSFTLDTTKKLTVVTQFETSGAINRYYVQNGVTFQQPNAELGSYSGNELNDDYCTAEEAEFGGSSFSDKGGLTQFKKATSGGMVLVMSLWDDYYANMLWLDSTYPTNETSSTPGAVLGSCSTSSGVPAQVESQSPNAKVTFSNIKFGPIGSTGNPSGGNPPGGNRGTTTTRRPATTTGSSPGPTQSHYGQCGGIGYSGPTVCASGTTCQVLNPYYSQCL |  |  |  | IC50 [1, 7]: 6540 µM; 411— Δ SA* (change in specific activity; ratio of variant: WT) ([4]; 411 single substitution): 0.2
411Val (protein, UniProt P62694 18-513, looked up, variant R411V) Exoglucanase 1: QSACTLQSETHPPLTWQKCSSGGTCTQQTGSVVIDANWRWTHATNSSTNCYDGNTWSSTLCPDNETCAKNCCLDGAAYASTYGVTTSGNSLSIGFVTQSAQKNVGARLYLMASDTTYQEFTLLGNEFSFDVDVSQLPCGLNGALYFVSMDADGGVSKYPTNTAGAKYGTGYCDSQCPRDLKFINGQANVEGWEPSSNNANTGIGGHGSCCSEMDIWEANSISEALTPHPCTTVGQEICEGDGCGGTYSDNRYGGTCDPDGCDWNPYRLGNTSFYGPGSSFTLDTTKKLTVVTQFETSGAINRYYVQNGVTFQQPNAELGSYSGNELNDDYCTAEEAEFGGSSFSDKGGLTQFKKATSGGMVLVMSLWDDYYANMLWLDSTYPTNETSSTPGAVVGSCSTSSGVPAQVESQSPNAKVTFSNIKFGPIGSTGNPSGGNPPGGNRGTTTTRRPATTTGSSPGPTQSHYGQCGGIGYSGPTVCASGTTCQVLNPYYSQCL |  |  |  | IC50 [1, 7]: 3160 µM; 411— Measured Specific Activity (SA) ([4]; 411 single substitution): 0.65 μmol 4 MU/min/mg CBH I; 411— Δ SA* (change in specific activity; ratio of variant: WT) ([4]; 411 single substitution): 0.9
268Phe (protein, UniProt P62694 18-513, looked up, variant R268F) Exoglucanase 1: QSACTLQSETHPPLTWQKCSSGGTCTQQTGSVVIDANWRWTHATNSSTNCYDGNTWSSTLCPDNETCAKNCCLDGAAYASTYGVTTSGNSLSIGFVTQSAQKNVGARLYLMASDTTYQEFTLLGNEFSFDVDVSQLPCGLNGALYFVSMDADGGVSKYPTNTAGAKYGTGYCDSQCPRDLKFINGQANVEGWEPSSNNANTGIGGHGSCCSEMDIWEANSISEALTPHPCTTVGQEICEGDGCGGTYSDNFYGGTCDPDGCDWNPYRLGNTSFYGPGSSFTLDTTKKLTVVTQFETSGAINRYYVQNGVTFQQPNAELGSYSGNELNDDYCTAEEAEFGGSSFSDKGGLTQFKKATSGGMVLVMSLWDDYYANMLWLDSTYPTNETSSTPGAVRGSCSTSSGVPAQVESQSPNAKVTFSNIKFGPIGSTGNPSGGNPPGGNRGTTTTRRPATTTGSSPGPTQSHYGQCGGIGYSGPTVCASGTTCQVLNPYYSQCL |  |  |  | IC50 ([1]; 268 single substitution, averaged IC50 from Tables 8-11, read-out: 268— Measured (merged IC50)): 480 µM; 268— Δ SA* (change in specific activity; ratio of variant: WT) ([4]; 268 single substitution): 0.5
